The results in this text go back to article PMC4807281, “Glutathionylation of the Bacterial Hsp70 Chaperone DnaK Provides a Link between Oxidative Stress and the Heat Shock Response*” (The Journal of Biological Chemistry, 2016).

As a reminder, the Kd is the free concentration of one partner at which half of the binding sites on the other are occupied at equilibrium, for simple one-to-one binding. Higher therefore signals a looser complex.

Experiment [1] concerns the target T1, DnaK, untreated control (E. coli, UniProt P0A6Y8 1-638). In words: cell-based or functional assay.
Experiment [2] has as its target T2, DnaK, glutathionylated at Cys-15 (E. coli, UniProt P0A6Y8 1-638, S-glutathionylated cysteine at Cys-15). In words: cell-based or functional assay.
Experiment [3] has as its target T1, DnaK, untreated control. In words: fluorescence polarisation; steady state; 20 nM FITC-…, increasing concentrations of DnaK, Buffer B, room temperature; ATP state. The settings on record: both partners purified.
The target in experiment [4] is T1, DnaK, untreated control. In words: fluorescence polarisation; steady state; 20 nM FITC-…, increasing concentrations of DnaK, 60 min incubation, Buffer B (50 mM Tris-HCl pH 7.5, 100 mM KCl, 5 mM MgCl2), room temperature; apo or ADP state; single site binding model. Conditions: both partners purified. A general note: Polarisation of emitted light reports the rotation of a fluorescent probe.

For experiment [5], the target named is T2, DnaK, glutathionylated at Cys-15. Described as above. The settings on record: both partners purified.
The target of experiment [6] is T3, DnaK, deglutathionylated (E. coli, UniProt P0A6Y8 1-638).
T3 construct: DnaK (bacterial Hsp70), E. coli, gene dnaK cloned from genomic DNA of E. coli C41 cells; primers from the start to the stop codon; also called deglutathionylated DnaK; not shown: His6, N-terminal, cleaved; Smt3, N-terminal, cleaved
Described as above. The settings on record: both partners purified.

The target in experiment [7] is T1, DnaK, untreated control. The experiment is described as follows: pull-down; 2 μM His6-DnaJ, 5 μM His6-GrpE or 2 μM His6-Smt3-σ^32 with 20 μM DnaK, Buffer B, 1 mM ADP, 8 °C, 60 min; Ni-Sepharose HP; wash 300 mM KCl, 40 mM imidazole; elution 300 mM imidazole; SDS-PAGE, Coomassie. Conditions: both partners purified.
For experiment [8], the target named is T2, DnaK, glutathionylated at Cys-15. Described as above. The settings on record: both partners purified.
For experiment [9], the target named is T3, DnaK, deglutathionylated. The experiment is described as above. Conditions: both partners purified.

No end group written: not given here. *: point of attachment. FITC = O=C1OC2(c3ccc(O)cc3Oc3cc(O)ccc32)c2ccc(NC(=S)*)cc21

T2 sequence (P0A6Y8 whole entry): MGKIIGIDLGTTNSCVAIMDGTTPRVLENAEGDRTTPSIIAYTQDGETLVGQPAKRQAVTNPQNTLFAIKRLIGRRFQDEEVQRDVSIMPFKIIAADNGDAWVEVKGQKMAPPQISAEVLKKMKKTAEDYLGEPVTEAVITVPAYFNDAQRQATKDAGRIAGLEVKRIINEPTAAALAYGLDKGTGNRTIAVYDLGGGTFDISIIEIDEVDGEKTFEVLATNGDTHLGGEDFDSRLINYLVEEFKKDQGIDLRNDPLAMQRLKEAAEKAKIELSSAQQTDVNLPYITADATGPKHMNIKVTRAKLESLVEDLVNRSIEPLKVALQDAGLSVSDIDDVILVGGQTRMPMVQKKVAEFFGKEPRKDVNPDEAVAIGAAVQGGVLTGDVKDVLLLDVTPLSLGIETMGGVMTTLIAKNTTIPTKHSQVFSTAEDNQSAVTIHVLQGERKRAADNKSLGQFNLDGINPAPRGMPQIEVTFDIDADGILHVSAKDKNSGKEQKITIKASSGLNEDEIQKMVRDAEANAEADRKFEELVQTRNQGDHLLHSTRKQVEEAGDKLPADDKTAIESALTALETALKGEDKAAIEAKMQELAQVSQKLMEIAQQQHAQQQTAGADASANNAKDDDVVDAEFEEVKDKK
T1 sequence (P0A6Y8 whole entry): as above
T3 sequence (P0A6Y8 whole entry): as above

B1: His6-DnaJ (natural protein, E. coli, UniProt P08622 1-376, looked up)
chain: MAKQDYYEILGVSKTAEEREIRKAYKRLAMKYHPDRNQGDKEAEAKFKEIKEAYEVLTDSQKRAAYDQYGHAAFEQGGMGGGGFGGGADFSDIFGDVFGDIFGGGRGRQRAARGADLRYNMELTLEEAVRGVTKEIRIPTLEECDVCHGSGAKPGTQPQTCPTCHGSGQVQMRQGFFAVQQTCPHCQGRGTLIKDPCNKCHGHGRVERSKTLSVKIPAGVDTGDRIRLAGEGEAGEHGAPAGDLYVQVQVKQHPIFEREGNNLYCEVPINFAMAALGGEIEVPTLDGRVKLKVPGETQTGKLFRMRGKGVKSVRGGAQGDLLCRVVVETPVGLNERQKQLLQELQESFGGPTGEHNSPRSKSFFDGVKKFFDDLTR
Turning to B1, the “acceleration of ATP turnover of DnaK by DnaJ, malachite green ATPase assay, DnaJ to DnaK ratio 2:1” value with DnaK, untreated control [1] was 6 fold; in experiment [2], 2 fold.

In the case of {FITC}-ALLLSAPRR (also called FAR) [FITC-ALLLSAPRR peptide], the Kd was at least 10 µM with DnaK, untreated control [3]; 200 to 500 nM in the experiment with DnaK, untreated control [4]; 4 to 6 µM in experiment [5]; 200 to 500 nM with DnaK, deglutathionylated [6].

B2: His6-Smt3-σ^32 (natural protein, E. coli, UniProt P0AGB3 1-284, looked up)
chain: MTDKMQSLALAPVGNLDSYIRAANAWPMLSADEERALAEKLHYHGDLEAAKTLILSHLRFVVHIARNYAGYGLPQADLIQEGNIGLMKAVRRFNPEVGVRLVSFAVHWIKAEIHEYVLRNWRIVKVATTKAQRKLFFNLRKTKQRLGWFNQDEVEMVARELGVTSKDVREMESRMAAQDMTFDLSSDDDSDSQPMAPVLYLQDKSSNFADGIEDDNWEEQAANRLTDAMQGLDERSQDIIRARWLDEDNKSTLQELADRYGVSAERVRQLEKNAMKKLRAAIEA
notes: σ^32 subunit of RNA polymerase (heat shock sigma factor), E. coli, gene rpoH cloned from genomic DNA of E. coli C41 cells; primers from the start to the stop codon; The His6-Smt3 tag (pET28a-SMT3) was not cleaved from σ^32; order of the tags from the printed label; also called heat shock transcription factor σ^32; not shown: His6, N-terminal, kept; Smt3, N-terminal, kept
For B2, the binding result is recorded as “binds” with DnaK, untreated control [7]; “binds” in experiment [8]; “binds” with DnaK, deglutathionylated [9].

B3: His6-GrpE (natural protein, E. coli, UniProt P09372 1-197, looked up)
chain: MSSKEQKTPEGQAPEEIIMDQHEEIEAVEPEASAEQVDPRDEKVANLEAQLAEAQTRERDGILRVKAEMENLRRRTELDIEKAHKFALEKFINELLPVIDSLDRALEVADKANPDMSAMVEGIELTLKSMLDVVRKFGVEVIAETNVPLDPNVHQAIAMVESDDVAPGNVLGIMQKGYTLNGRTIRAAMVTVAKAKA
notes: GrpE (nucleotide exchange factor of DnaK), E. coli, gene grpE cloned from genomic DNA of E. coli C41 cells; primers from the start to the stop codon; Uncleavable His6 tag from the mini pRSETa plasmid; not shown: His6, N-terminal, kept
For the molecule B3, the binding result with DnaK, untreated control [7] was “binds”; in experiment [8], “binds”; with DnaK, deglutathionylated [9], “binds”.
